Measurements reported in patent US20240141072A1.

Biological target: human DLL3 on DLL3-expressing tumor cell lines (human) (UniProt Q9NYJ7)
Assay: cell-based or functional assay

Sequence of human DLL3 on DLL3-expressing tumor cell lines (human) (Q9NYJ7 27-618 limits assumed): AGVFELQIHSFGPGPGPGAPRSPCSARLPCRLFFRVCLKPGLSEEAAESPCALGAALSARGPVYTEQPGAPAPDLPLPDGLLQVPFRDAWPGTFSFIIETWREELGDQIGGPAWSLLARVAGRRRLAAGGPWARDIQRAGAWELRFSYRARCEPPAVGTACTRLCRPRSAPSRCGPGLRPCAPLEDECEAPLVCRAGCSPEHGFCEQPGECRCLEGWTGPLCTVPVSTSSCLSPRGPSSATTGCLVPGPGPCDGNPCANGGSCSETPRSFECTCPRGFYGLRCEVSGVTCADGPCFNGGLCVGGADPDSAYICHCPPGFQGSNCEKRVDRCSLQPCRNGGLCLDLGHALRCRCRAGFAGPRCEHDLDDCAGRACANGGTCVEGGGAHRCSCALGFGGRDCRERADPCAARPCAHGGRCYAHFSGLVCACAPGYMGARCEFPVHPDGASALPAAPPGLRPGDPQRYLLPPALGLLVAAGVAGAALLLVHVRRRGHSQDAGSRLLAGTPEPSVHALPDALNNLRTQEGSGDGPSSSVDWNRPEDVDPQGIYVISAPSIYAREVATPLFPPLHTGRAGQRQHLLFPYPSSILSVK

Row | DMS-153 TDCC EC50 [nM] | fold TDCC potency over the parental molecule DH43 [fold] | fold TDCC potency over the parental molecule DH6 [fold] | Binder
1 | 0.054 |  | 4.4 | 4D09-M34L anti-DLL3 trispecific protein (protein, not shown: large carriers) EVQLVESGGGLVQPGGSLTLSCAASGSSVKFLSLAWYRQAPGKKRELVAGISADGSTDYILSVKGRFTISRDNAKNSVYLQMNSLRAEDTAVYYCYAYEWTTRYTYWGQGTLVTVSS
2 | 0.13 |  |  | 4H11-M34L anti-DLL3 trispecific protein (protein, not shown: large carriers) EVQLVESGGGLVQPGGSLTLSCAASGSSVSRLSLAWYRQAPGKKRELVAGISVDGSTDYIDSVKGRFTISRDNAKNSVYLQMNSLRAEDTAVYYCYAYRWTTRLTYWGQGTLVTVSS

The next lines start with the binder.

Row | Binder | DMS-153 TDCC EC50 [nM] | fold TDCC potency over the parental molecule DH43 [fold] | fold TDCC potency over the parental molecule DH6 [fold]
3 | 2F11 anti-DLL3 trispecific protein (protein, not shown: large carriers) EVQLVESGGGLVQPGGSLTLSCVASGSVSSINAMGWYRRAPGKQRELVAGISSDGSKVYKDSVKGRFTISRDNAKNSVYLQMNSLRAEDTAVYYCYYFRTVSGSSMGYWGQGTLVTVSS | 0.049 |  | 
4 | 2E05-M106Y anti-DLL3 trispecific protein (protein, not shown: large carriers) EVQLVESGGGLVQPGGSLTLSCVASGSPSSINAYGWYRRAPGKQRELVAGISSDGSKVYSDSVKGRFTISRDNAKNSVYLQMNSLRAEDTAVYYCYYFRTVSGSSYSYWGQGTLVTVSS | 0.063 |  | 
5 | 2E05-M106Q anti-DLL3 trispecific protein (protein, not shown: large carriers) EVQLVESGGGLVQPGGSLTLSCVASGSPSSINAYGWYRRAPGKQRELVAGISSDGSKVYSDSVKGRFTISRDNAKNSVYLQMNSLRAEDTAVYYCYYFRTVSGSSQSYWGQGTLVTVSS | 0.041 | 6.6 | 
